# Measurements taken from US20230201308A1, “TREATMENT OF CORONAVIRUS INFECTION WITH […]” (Eiger Biopharmaceuticals, Inc., priority 2020, published 2023).
# Read-outs that look alike come from different tables or passages of the source.
# B1: pegylated interferon lambda-1a (protein)
# chain: MKPTTTGKGCHIGRFKSLSPQELASFKKARDALEESLKLKNWSCSSPVFPGNWDLRLLQVRERPVALEAELALTLKVLEAAAGPALEDVLDQPLHTLHHILSQLQACIQPQPTAGPRPRGRLHHWLHRLQEAPKKESAGCLEASVTFNLFRLLTRDLKYVADGNLSLRTSTHPEST
# modifications: PEG
# notes: 180 mcg subcutaneous injection
# System: SARS-CoV-2
# [1] = High risk population, Brazil and Toronto, N = 709
# [2] = High risk population, Brazil and Toronto, N = 709 vs placebo N = 836
# [3] = High risk population, Brazil, N = 698
molecule,measurement,setting,value
B1,ER visit ≥6 h or hospitalization due to COVID-19: events/patients,All,25/931
same,All cause death or hospitalization for COVID-19: events/patients,"All, Brazil+Toronto",24/931
same,"All cause death or hospitalization for COVID-19: Bayes prob, Dichotomous","All, vs placebo",0.951
same,"All cause death or hospitalization for COVID-19: Bayes prob, TTE","All, vs placebo",0.9557
same,"All cause death or hospitalization for COVID-19: HR (95% CrI), TTE","All, vs placebo","0.65 (0.39, 1.05)"
same,"All cause death or hospitalization for COVID-19: RR (95% CrI), Dichotomous","All, vs placebo","0.66 (0.40, 1.07)"
same,"ER visit ≥6 h or hospitalization due to COVID-19: Bayes prob, Dichotomous","All, vs placebo",0.999
same,"ER visit ≥6 h or hospitalization due to COVID-19: Bayes prob, TTE","All, vs placebo",0.9995
same,"ER visit ≥6 h or hospitalization due to COVID-19: HR (95% CrI), TTE","All, vs placebo","0.47 (0.29, 0.73)"
same,"ER visit ≥6 h or hospitalization due to COVID-19: RR (95% CrI), Dichotomous","All, vs placebo","0.49 (0.30, 0.76)"
same,"HR, all-cause mortality or hospitalization due to COVID-19, Time-to-Event analysis",Brazil+Toronto combined,0.65
same,"RR, all-cause mortality or hospitalization due to COVID-19",Brazil+Toronto combined,0.66
same,"All cause ER visit >6 h, hospitalization, or death: percentage",[1],(4.2%)
same,"All cause ER visit >6 h, hospitalization, or death: total",[1],30
same,"All cause ER visit, hospitalization, or death: percentage",[1],(13.7%)
same,"All cause ER visit, hospitalization, or death: total",[1],97
same,All cause death or hospitalization due to COVID-19: percentage,[1],(3.1%)
same,All cause death or hospitalization due to COVID-19: total,[1],22
same,Days of hospitalization,[1],0 days
same,Days on mechanical ventilation,[1],0 days
same,Days to recovery: median,[1],14 days
same,Death due to COVID-19: percentage,[1],(0.1%)
same,Death due to COVID-19: total,[1],1
same,Death or hospitalization due to COVID-19: percentage,[1],(2.8%)
same,Death or hospitalization due to COVID-19: total,[1],20
same,Hospitalization for COVID-19 (excluding those resulting in death): percentage,[1],(2.7%)
same,Hospitalization for COVID-19 (excluding those resulting in death): total,[1],19
same,Hospitalization or ER (any duration) for COVID-19: percentage,[1],(10.7%)
same,Hospitalization or ER (any duration) for COVID-19: total,[1],76
same,Hospitalization or ER >6 h for COVID-19: percentage,[1],(3.1%)
same,Hospitalization or ER >6 h for COVID-19: total,[1],22
same,Mechanical ventilation: percentage,[1],(0.6%)
same,Mechanical ventilation: total,[1],4
same,"All cause ER visit >6 h, hospitalization, or death: Pr (Superiority)",[2],0.983
same,"All cause ER visit >6 h, hospitalization, or death: RR (95% CrI), estimated treatment effect",[2],"0.64 (0.41, 0.97)"
same,"All cause ER visit, hospitalization, or death: Pr (Superiority)",[2],0.887
same,"All cause ER visit, hospitalization, or death: RR (95% CrI), estimated treatment effect",[2],"0.86 (0.68, 1.10)"
same,All cause death or hospitalization due to COVID-19: Pr (Superiority),[2],0.927
same,"All cause death or hospitalization due to COVID-19: RR (95% CrI), estimated treatment effect",[2],"0.69 (0.41, 1.14)"
same,"Days of hospitalization: MD (95% CrI), estimated treatment effect",[2],"−1.39 (−4.38, 1.20)"
same,Days of hospitalization: Pr (Superiority),[2],0.8509
same,"Days on mechanical ventilation: MD (95% CrI), estimated treatment effect",[2],"−4.47 (−6.89, 3.09)"
same,Days on mechanical ventilation: Pr (Superiority),[2],0.9052
same,"Days to death for COVID-19: HR (95% CrI), estimated treatment effect",[2],"0.23 (0.01, 1.95)"
same,Days to death for COVID-19: Pr (Superiority),[2],0.9040
same,"Days to hospitalization for COVID-19: HR (95% CrI), estimated treatment effect",[2],"0.57 (0.33, 0.99)"
same,Days to hospitalization for COVID-19: Pr (Superiority),[2],0.9770
same,"Days to hospitalization or ER visit >6 h for COVID-19: HR (95% CrI), estimated treatment effect",[2],"0.47 (0.29, 0.74)"
same,Days to hospitalization or ER visit >6 h for COVID-19: Pr (Superiority),[2],0.9992
same,"Days to hospitalization or death for COVID-19: HR (95% CrI), estimated treatment effect",[2],"0.61 (0.35, 1.07)"
same,Days to hospitalization or death for COVID-19: Pr (Superiority),[2],0.9610
same,"Days to recovery: HR (95% CrI), estimated treatment effect",[2],"0.93 (0.83, 1.04)"
same,Days to recovery: Pr (Superiority),[2],0.8862
same,Death due to COVID-19: Pr (Superiority),[2],0.847
same,"Death due to COVID-19: RR (95% CrI), estimated treatment effect",[2],"0.42 (0.05, 2.06)"
same,Death or hospitalization due to COVID-19: Pr (Superiority),[2],0.961
same,"Death or hospitalization due to COVID-19: RR (95% CrI), estimated treatment effect",[2],"0.63 (0.37, 1.05)"
same,Hospitalization for COVID-19 (excluding those resulting in death): Pr (Superiority),[2],0.931
same,"Hospitalization for COVID-19 (excluding those resulting in death): RR (95% CrI), estimated treatment effect",[2],"0.67 (0.38, 1.14)"
same,Hospitalization or ER (any duration) for COVID-19: Pr (Superiority),[2],0.992
same,"Hospitalization or ER (any duration) for COVID-19: RR (95% CrI), estimated treatment effect",[2],"0.72 (0.55, 0.94)"
same,Hospitalization or ER >6 h for COVID-19: Pr (Superiority),[2],0.999
same,"Hospitalization or ER >6 h for COVID-19: RR (95% CI), estimated treatment effect",[2],"0.49 (0.30, 0.78)"
same,Mechanical ventilation: Pr (Superiority),[2],0.716
same,"Mechanical ventilation: RR (95% CrI), estimated treatment effect",[2],"0.72 (0.21, 2.20)"
same,"All cause ER visit >6 h, hospitalization, or death: percentage",[3],(4.3%)
same,"All cause ER visit >6 h, hospitalization, or death: total",[3],30
same,"All cause ER visit, hospitalization, or death: percentage",[3],(13.9%)
same,"All cause ER visit, hospitalization, or death: total",[3],97
same,All cause death or hospitalization due to COVID-19: percentage,[3],(3.2%)
same,All cause death or hospitalization due to COVID-19: total,[3],22
same,Days of hospitalization,[3],0 days
same,Days on mechanical ventilation,[3],0 days
same,Days to recovery: median,[3],14 days
same,Death due to COVID-19: percentage,[3],(0.1%)
same,Death due to COVID-19: total,[3],1
same,Death or hospitalization due to COVID-19: percentage,[3],(2.9%)
same,Death or hospitalization due to COVID-19: total,[3],20
same,Hospitalization for COVID-19 (excluding those resulting in death): percentage,[3],(2.7%)
same,Hospitalization for COVID-19 (excluding those resulting in death): total,[3],19
same,Hospitalization or ER (any duration) for COVID-19: percentage,[3],(10.9%)
